Assay [1] deals with P1-HTR cells pulsed with peptide. The assay is described as follows: Generation of peptide-specific CTLs after immunization with peptide, adjuvant and IL-12 (51Cr release assay). The format is cell-based, BALB/C mice.
The test system of assay [2] is Meth A sarcoma. The assay is described as follows: Suppression of growth of established Meth A tumors by peptide in adjuvant plus low dose IL-12. It counts as in vivo, BALB/C mice. The settings on record: for suppression of tumor growth: peptide in QS-21 or QS-21 alone at days 7 and 14 after Meth A challenge, IL-12 1 ng, 4 times a week for two weeks from day 7. The protocol: As with the prior experiments, female BALB/C mice were injected with 5×10^4 Meth A cells at day 0. The mice received two injections of the mutant peptide in QS-21, the wild type peptide in QS-21, or QS-21 alone in the same manner described in Example 3, at weekly intervals. At day 7, the mice began receiving injections of 1 ng of IL-12 (4 times a week, for two weeks).
FIG. 4A resulted from QS-21 plus the mutant peptide followed by injections of IL-12. FIG. 4B resulted from QS-21 plus peptide, followed by injections with IL-12. FIG. 4C resulted from QS-21 alone followed by injections of IL-12.

For assay [3], the system named is Meth A sarcoma. As to the kind of experiment: Anti-tumor effect of IL-12 on established Meth A sarcoma in mice (tumor diameter). The format is in vivo, BALB/C mice. Here is the method:
The in vivo model employed used the transplantable, methylcholanthrene-induced sarcoma “Meth A.” This is a sarcoma of BALB/C (murine) origin, passaged as an ascitic tumor. See Old, et al, Ann. N.Y. Acad. Sci 101:80-106 (1962), incorporated by reference in its entirety.
BALB/C female mice were injected intradermally with 5×10^4 Meth A cells on day 0. Seven days later, a treatment regime began, wherein the animals received doses of IL-12, 4 times a week. Control animals received no IL-12. The remaining animals received 1 ng, 10 ng, 100 ng, or 500 ng of IL-12 in each dose, administered by intraperitoneal injection.
The effect of the IL-12 on the induced tumors was observed by measuring the diameter of the tumors at the end of the treatment period. FIGS. 1A, 1B, 1C, 1D and 1E show this. The panels show results with doses of 0 ng, 1 ng, 10 ng, 100 ng, and 500 ng, respectively.
The effect of the IL-12 was abolished by administering monoclonal antibodies against CD8 molecules, but was not affected via administration of anti-CD4 mAbs.

The test system of assay [4] is Meth A sarcoma. The assay is described as follows: Timing of IL-12 administration relative to Meth A challenge. It counts as in vivo, BALB/C mice. The settings on record: 100 ng IL-12 at day -14, day 0 or day 7 relative to Meth A challenge. The protocol: The importance of timing in the administration of IL-12 was then studied. In these experiments, female BALB/C mice were again injected with 5×10^4 Meth A cells, as in Example 1 (day 0). Injections of 100 ng IL-12 were administered at day “−14” (i.e., 14 days before challenge with the tumor cells), day 0, or day 7 (i.e., 7 days after challenge) as in Example 1.

Entries after “also recorded” stand apart in the source; their conditions may differ. No end group written: not given here.

Regarding “KYMCNSSCM (cysteine pairing not given here) [wild type peptide, wild type counterpart of peptide 234 CM]”, the “CTLs elicited following immunization” value in assay [1] (100 μg peptide twice at weekly intervals, regardless of the adjuvant (QS-21 or IFA) or treatment with IL-12) is “No CTLs were elicited”. Besides, in the assay with Meth A sarcoma [2], the “suppression of tumor growth” value is recorded as “did not lead to suppression of tumor growth”.

B1: IL-12: the cytokine interleukin-12 (protein, UniProt P29459 23-219; P29460 23-328, looked up)
Interleukin-12 subunit alpha: RNLPVATPDPGMFPCLHHSQNLLRAVSNMLQKARQTLEFYPCTSEEIDHEDITKDKTSTVEACLPLELTKNESCLNSRETSFITNGSCLASRKTSFMMALCLSSIYEDLKMYQVEFKTMNAKLLMDPKRQIFLDQNMLAVIDELMQALNFNSETVPQKSSLEEPDFYKTKIKLCILLHAFRIRAVTIDRVMSYLNAS
Interleukin-12 subunit beta: IWELKKDVYVVELDWYPDAPGEMVVLTCDTPEEDGITWTLDQSSEVLGSGKTLTIQVKEFGDAGQYTCHKGGEVLSHSLLLLHKKEDGIWSTDILKDQKEPKNKTFLRCEAKNYSGRFTCWWLTTISTDLTFSVKSSRGSSDPQGVTCGAATLSAERVRGDNKEYEYSVECQEDSACPAAEESLPIEVMVDAVHKLKYENYTSSFFIRDIIKPDPPKNLQLKPLKNSRQVEVSWEYPDTWSTPHSYFSLTFCVQVQGKSKREKKDRVFTDKTSATVICRKNASISVRAQDRYYSSSWSEWASVPCS
B1: in assay [1] (IL-12 0.1, 1, 10 or 100 ng, four times over two weeks, with peptide in QS-21 or IFA), the “optimal dose of IL-12 for the generation of CTLs” value worked out at 1 ng. Further, the “effect of higher doses of IL-12 on generation of CTLs” value in assay [1] (IL-12 doses above 1 ng, with peptide in QS-21 or IFA) is reported as “suppressive effect”. For the same molecule, the “stimulation of an immune response when used alone” value in the assay on Meth A sarcoma [2] (each component alone, summary of the examples) was “none”. In addition, the “suppression of tumor growth” value in the assay with Meth A sarcoma [2] is recorded as “strong suppression of tumor growth; also recorded: growth suppressive effect”. The “anti-tumor effect (diameter of the tumors at the end of the treatment period)” value in the assay with Meth A sarcoma [3] (IL-12 1, 10, 100 or 500 ng i.p., 4 times a week from day 7 after 5×10^4 Meth A cells intradermally) is “dose dependent anti-tumor effect”. In addition, the “effect of the IL-12 on tumors when anti-CD4 mAbs are administered” value in the assay with Meth A sarcoma [3] (with anti-CD4 mAbs) is “not affected”. Moreover, the “effect of the IL-12 on tumors when monoclonal antibodies against CD8 are administered” value in the assay with Meth A sarcoma [3] (with anti-CD8 mAbs) was “abolished”. Moreover, in the assay on Meth A sarcoma [4], the “effectiveness by timing of administration” value is listed as “most effective after the tumor had become established; also recorded: particularly effective after tumors have already formed”.
